# Data from patent US20210106703A1, “RADIOIMMUNOCONJUGATES IN COMBINATION WITH OTHER DRUGS AS TREATMENT AGAINST NHL” (Nordic Nanovector ASA, priority 2017, published 2021).
# B1: Lutetium-177 [^177Lu]-lilotomab satetraxetan (conjugate, chains of the INN, looked up)
# VH: EIQLQQSGPELVKPGASVKVSCKASGYSFTDYNMYWVKQSHGKSLEWIGYIDPYNGDTTYNQKFKGKATLTVDKSSSTAFIHLNSLTSEDSAVYYCARSPYGHYAMDYWGQGTSVTVSS
# VL: DIVMTQSHKLLSTSVGDRVSITCKASQDVSTAVDWYQQKPGQSPKLLINWASTRHTGVPDRFTGSGSGTDYTLTISSMQAEDLALYYCRQHYSTPFTFGSGTKLEIK
# modifications: 177Lu satetraxetan chelator conjugate
# Columns and labels:
# Assay type in all cases: cell-based, human
# RIVA cells = test: Real Time Glo viability screen, Betalutin with PARP or cell cycle kinase inhibitors (Examples 4, 7); details: RIVA
# Protocol: DLBCL cell lines U2932 and RIVA were maintained in RPMI 1640-GlutaMAX medium (Gibco) supplemented with 15% fetal bovine serum (Biowest) and 1% penicillin-streptomycin (Gibco) at 37° C. in a humidified atmosphere containing 5% CO2. Cells were split twice a week 1:7 and diluted 2-4 days before start of the experiment, to ensure they are in exponential growth at the beginning of the experiment.
# Cells were treated in 6-well plates without shaking for 18 h with Betalutin at a final concentration of 1 μg/ml for U2932 and 0.5 μg/ml for RIVA. After treatment, PBS was added to the cells, and the cells pelleted. Cells were first resuspended in 1 ml PBS, then washed twice in PBS and finally diluted in growth medium to a final concentration of 2.5*10^6 cells/ml.
# (§1) Cells density measurements were performed the day before seeding. Based on these measurements cells were seeded in 384-well plates at a density of 3000 cells per well in a culturing volume of 25 μl (resulting in start titers: 120 000 cells/ml) using a robot. For measuring viability using Real Time Glo (Promega, WI, USA), the Cell Viability Substrate and NanoLuc® Enzyme were diluted 1:500 in growth medium, and 25 μL of diluted reagents dispensed in each well by a robot. All reagents were equilibrated to 37° C. Cells were incubated with the reaction mix for 1 h at 37° C. before the first measurement of luminescence. Measurements were repeated as often as required within 72 h after adding the reagents. A Tecan SPARK 10M plate reader (Tecan, SUI) was used to measure luminescence, with the integration time set to 1 sec.
# The screen was performed in 384-well plate with selected PARP inhibitors (stock solutions 10 mM in DMSO) acquired from SelleckChem (Selleckchem, TX, USA). To include no-drug controls, the drug panel (Table 6) was divided on two plates. Due to previous observations of cells growing poorly in wells located at the edges of the plates, the two outer most rows and columns were not used. As previously mentioned three different drug concentrations were used in the screen, 10 nM and 1 μM for U2932 and 10 and 100 nM for RIVA.
# Candidate hits were identified using the Bliss Independence test for synergy. The effect of each drug alone at each concentration was calculated as the fraction of dead cells as compared to control cells Fa=(1−(RLUdrug/avgRLUcontrol), a similar calculation was performed for the effect of Betalutin alone Fb=(1−(avgRLUBetalutin/avgRLUcontrol). Through the following equation we found the expected additive effect of the combination of drug+Betalutin: Expected effect (E)Fab=(Fa+Fb−Fa*Fb). We subtracted this expected effect from the measured effect (M)Fab=(1−(RLUDrug+Betalutin/avgRLUcontrol) to get a value (Diff)Fab representing how the measured effect differed from the expected additive effect of the combination. This value was normalized to the survival fraction of drug alone: (Diff)Fab#=(Diff)Fab/(1−Fa). Furthermore, to get a measure of how big the well-to-well variation was, we calculated the standard deviation for the effect of Betalutin alone in the 48 control wells on each plate: (STDEV)Fb=(RLUBetalutin/RLUcontrol)−(averageRLUBetalutin/averageRLUcontrol). Drugs with a value (Diff)Fab#two times higher than the standard deviation of Betalutin treated controls, (STDEV)Fb, were scored as hits.
# as §1, with “Measurements were repeated as often as required within 72 h after adding the reagents. A Tecan SPARK 10M plate reader (Tecan, SUI) was used to measure luminescence, with the integration time set to 1 sec.” left out
# OCI-Ly8 cells = test: Cell cycle analysis (PI, Muse flow cytometer); details: OCI-Ly8, 1 μM inhibitor + ^177Lu-lilotomab, versus ^177Lu-lilotomab alone
# Protocol: Cells were harvested at 0 […], and fixed in 70% ethanol at -20° C. for at least 3 h. After staining with the Muse® Cell Cycle Assay Kit (Merck Millipore, Molsheim, France) using propidium iodide in the dark at room temperature for 30 min, cell cycle distribution was analyzed using a Muse® flow cytometer. The percentage of cells in the G0/G1, S and G2/M was calculated (mean of three experiments in triplicate) and the effect of WEE-1 and MYT-1 kinase inhibitors on the cell cycle was assessed.
# Ramos cells = test: Apoptosis induction (Annexin V/7-AAD, Muse flow cytometer); details: 6 MBq/mL radiolabelled mAb for 18 h, peak time 72 h
# Protocol: (§2) Cells were harvested at 0, 2 h, 18 h, 1 d, 2 d, 3 d of RIT. At each time point, apoptosis was detected with […] from Merck Millipore (Annexin V Kit with 7-AAD) in the dark for 30 min at room temperature before analysis using Muse® flow cytometer
# Rec-1 cells = test: as above; details: Rec-1, 6 MBq/mL radiolabelled mAb for 18 h, peak time 72 h
# Protocol: as §2
molecule,measurement,setting,value
Nc1nc(Nc2ccc(S(N)(=O)=O)cc2)nn1C(=O)c1c(F)cccc1F [JNJ-7706621],"Growth inhibitory effect, drug alone",RIVA cells; drug 100 nM,no growth inhibitory effect
C=CCn1c(=O)c2cnc(Nc3ccc(N4CCN(C)CC4)cc3)nc2n1-c1cccc(C(C)(C)O)n1 [MK-1775],"Proportion of cells in G2/M, inhibitor combined with ^177Lu-lilotomab",OCI-Ly8 cells,reduction of the fraction of G2/M cells
B1,Apoptosis level,Ramos cells,33±8%
same,Apoptosis level,Rec-1 cells,67±18%
same,Proliferation relative to non-treated cells,"RIVA cells; 0.5 μg/ml [600 MBq/mg], days 4-6",more than 40%
same,"Inhibition of proliferation capacity, single treatment","RIVA cells; Betalutin 0.5 μg/ml, days 5 and 6",about 50%
